Test [1] has as its target T1, MFSD2ACO expressed in HEK-293T.17 cells (LPC-analog transport assay) (human, UniProt Q8NA29 1-543).
T1 chain: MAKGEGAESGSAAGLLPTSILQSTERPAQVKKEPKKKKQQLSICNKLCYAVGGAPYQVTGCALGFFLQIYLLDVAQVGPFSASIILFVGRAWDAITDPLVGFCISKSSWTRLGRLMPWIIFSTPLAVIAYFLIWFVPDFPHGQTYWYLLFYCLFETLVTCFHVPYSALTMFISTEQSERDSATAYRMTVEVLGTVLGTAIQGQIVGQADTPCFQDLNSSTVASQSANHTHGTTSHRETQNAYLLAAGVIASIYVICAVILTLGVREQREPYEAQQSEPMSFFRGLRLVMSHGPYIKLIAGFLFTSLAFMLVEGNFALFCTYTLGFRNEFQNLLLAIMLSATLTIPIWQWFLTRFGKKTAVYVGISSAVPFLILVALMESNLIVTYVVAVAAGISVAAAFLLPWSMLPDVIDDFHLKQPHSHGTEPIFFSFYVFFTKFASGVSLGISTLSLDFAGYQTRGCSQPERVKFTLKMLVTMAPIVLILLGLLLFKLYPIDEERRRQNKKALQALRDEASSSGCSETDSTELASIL
Put plainly: cell-based or functional assay.

Test [2] has as its target T2, GFP-MFSD2ACO (N-terminal FLAG-tag/GFP fusion of MFSD2ACO, detergent-solubilised lysate) (human, UniProt Q8NA29 1-543).
T2 construct: The methods say only 'MFSD2A'; also called MFSD2A-GFP; not shown: N-terminal FLAG-tag, GFP and PreScission protease cleavage site
T2 chain: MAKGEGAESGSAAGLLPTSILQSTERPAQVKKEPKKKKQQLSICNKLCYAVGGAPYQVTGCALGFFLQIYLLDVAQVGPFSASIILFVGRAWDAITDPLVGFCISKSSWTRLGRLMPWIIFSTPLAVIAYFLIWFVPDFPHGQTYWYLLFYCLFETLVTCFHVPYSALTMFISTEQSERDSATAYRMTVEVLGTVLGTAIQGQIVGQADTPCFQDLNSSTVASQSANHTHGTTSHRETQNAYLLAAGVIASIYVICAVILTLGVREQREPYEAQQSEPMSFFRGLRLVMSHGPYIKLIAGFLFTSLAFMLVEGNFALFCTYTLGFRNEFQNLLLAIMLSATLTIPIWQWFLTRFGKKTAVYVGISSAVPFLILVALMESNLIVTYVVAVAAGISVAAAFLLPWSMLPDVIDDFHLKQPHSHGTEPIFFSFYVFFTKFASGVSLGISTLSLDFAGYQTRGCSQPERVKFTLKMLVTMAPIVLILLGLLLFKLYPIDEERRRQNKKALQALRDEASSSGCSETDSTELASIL
Put plainly: titration of SYNC2-mCherry lysate onto GFP-MFSD2A captured on anti-FLAG resin in DDM/CHS at 4 °C; eluted mCherry/GFP fluorescence fitted to a quadratic binding equation. As to the method: SYNC2 binding to MFSD2A was assayed in clear lysates of detergent-solubilized HEK-293F cells expressing mCherry (C-terminal) and GFP (N-terminal) fusion constructs of SYNC2 and MFSD2A, respectively, that enable protein quantification. Clear cells lysates were obtained by 1-hour solubilization in lysis buffer containing 50 mM HEPES pH 7.4, 200 mM NaCl, 5% v/v glycerol, 1 mM EDTA, protease-inhibitor cocktail, 1% DDM, and 0.2% CHS, followed by centrifugation (3,800g, 20 min). SYNC2-mCherry and GFP-MFSD2A protein concentrations in lysates were determined using purified standards in a micro-plate reader (CLARIOstar-Plus) set at 570/620 and 470/514 (λexcitation/λemission), respectively. MFSD2A-GFP lysate at 500 nM was incubated with 2 ml anti-FLAG M2 resin for 1 hour, fractionated in 8 equal parts placed on gravity columns and washed with 1 ml of wash buffer (50 mM HEPES pH 7.4, 200 mM NaCl, 5% (v/v) glycerol, 0.03% DDM, and 0.006% CHS). SYNC2-mCherry was added from a calibrated stock at 2 μM, and equilibrated for 1 hour. […] Eluted protein was transferred to a 96-well flat-bottom black plate for quantification of GFP and mCherry fluorescence. SYNC-mCherry fluorescence background was determined from samples with anti-FLAG resin that lack MFSD2A-GFP bound. SYNC2-mCherry subtracted fluorescence was fitted to a quadratic binding equation using Sigma Plot (Systat).

In test [3] the target is T3, MFSD2ACO (thermostable consensus MFSD2A mutant), purified in detergent (human, UniProt Q8NA29 1-543).
T3 construct: Full-length transporter expressed in HEK-293F with an N-terminal FLAG-tag, GFP and PreScission site; also called MFSD2A consensus; MFSD2A consensus design
T3 chain: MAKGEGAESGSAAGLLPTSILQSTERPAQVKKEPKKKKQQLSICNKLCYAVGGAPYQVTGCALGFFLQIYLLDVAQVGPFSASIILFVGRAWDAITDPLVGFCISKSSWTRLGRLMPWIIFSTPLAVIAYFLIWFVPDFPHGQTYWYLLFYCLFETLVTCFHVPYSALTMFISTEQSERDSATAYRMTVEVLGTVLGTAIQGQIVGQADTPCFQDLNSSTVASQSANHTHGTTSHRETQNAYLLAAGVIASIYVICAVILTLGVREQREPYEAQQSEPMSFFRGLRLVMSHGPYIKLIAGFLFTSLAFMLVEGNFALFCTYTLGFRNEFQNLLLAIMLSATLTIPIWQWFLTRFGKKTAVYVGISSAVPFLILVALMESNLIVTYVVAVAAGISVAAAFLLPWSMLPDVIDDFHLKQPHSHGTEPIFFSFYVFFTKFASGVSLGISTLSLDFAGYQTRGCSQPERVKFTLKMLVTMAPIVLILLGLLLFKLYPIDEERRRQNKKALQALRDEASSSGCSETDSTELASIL
In words: cryo-EM 2D classes and 3D reconstructions of the purified complex; 3.6 Å map of SYNC2SU-CO bound to MFSD2ACO. From the text: For cryo-EM structural determination of MFSD2ACO-SYNC2CO complex, the inventors used SYNC2CO-C43S (SYNC2_CO-C43S) mutant to avoid detachment of surface and transmembrane subunits upon binding to MFSD2ACO. […] However, high flexibility within the complex precluded high-resolution 3D reconstructions. To overcome this problem, the inventors used a smaller box size in order to extract individual components, effectively increasing particle number and sample homogeneity, as it was recently shown in cryo-EM structure determination of human CD20 bound to divalent Fab fragments (Kumar et al., 2020). This approach enabled particle averaging over the three MFSD2ACO molecules in the complex, yielding a cryo-EM map at an overall 3.6 Å resolution of SYNC2_SU-CO bound to MFSD2ACO (FIG. 1F; Table 1; FIG. 7, 8). […] Trimeric SYNC2TM in the post-fusion state was not resolved in 3D cryo-EM reconstructions, likely due to lower number of particles, as well as alignment problems of micelles containing only three flexible transmembrane helices.
MFSD2ACO-SYNC2_CO-C43S purified complex was applied to glow-discharged Au 200 mesh Quantifoil R1.2/1.3 holey carbon grids (Quantifoil), and vitrified using Vitrobot Mark IV (ThermoFisher). Typically, 4 μl of sample at 1.2-1.5 mg/ml were applied to the grids, and the Vitrobot chamber was maintained at 100% humidity and 4° C. […]

B1: SYNC2SU-CO (soluble thermostable consensus SYNC2 fragment with C43S), purified, C-terminal EPEA-tag (ligand)
chain: AYRHPDFPLLEKAQQLLQSTGSPYSTNSWLCTSSSTETPGTAYPASPREWTSIEAELHISYRWDPNLKGLMRPANSLLSTVKQDFPDIRQKPPIFGPIFTNINLMGIAPICVTAKRKNGTNVGTLPSTVCNVTFTVDPNQQTYQTYTHNQFRHQPRFPKPPNITFPQGTLLDKSTRFCQGRPSSCSTRNFWFRPADYNQCLQISNLSSTAEWVLLDQTRNSLFWENKTKGANQSQTPCVQVLAGMTIATSYLGISAVSEFFGTSLTPLFHFHISTCLKTQGAFYICGQSIHQCLPSNWTGTCTIGYVTPDIFIAPEPEA
With B1, in test [1], the “half-maximal inhibitory concentration (IC50) of Na+-dependent LPCNBD transport in cells” value is about 200 nM.

B2: SYNC2CO-C43S-mCherry (C-terminal mCherry fusion, detergent-solubilised lysate) (ligand)
chain: AYRHPDFPLLEKAQQLLQSTGSPYSTNSWLCTSSSTETPGTAYPASPREWTSIEAELHISYRWDPNLKGLMRPANSLLSTVKQDFPDIRQKPPIFGPIFTNINLMGIAPICVTAKRKNGTNVGTLPSTVCNVTFTVDPNQQTYQTYTHNQFRHQPRFPKPPNITFPQGTLLDKSTRFCQGRPSSCSTRNFWFRPADYNQCLQISNLSSTAEWVLLDQTRNSLFWENKTKGANQSQTPCVQVLAGMTIATSYLGISAVSEFFGTSLTPLFHFHISTCLKTQGAFYICGQSIHQCLPSNWTGTCTIGYVTPDIFIAPGNLSLPIPIYGNSPLPRVRRAIHFIPLLAGLGILAGTGTGIAGITKASLTYSQLSKEIANNIDTMAKALTTMQEQIDSLAAVVLQNRRGLDMLTAAQGGICLALDEKCCFWVNQSGKVQDNIRQLLNQASSLRERATQGWLNWEGTWKWFSWVLPFIGPLVSLLLLLLFGPCLLNLITQFVSSRLQAIKLQTNLSAGRHPRNIQESPF
notes: The methods say only 'SYNC2'; also called SYNC2-mCherry; SYNC-mCherry; not shown: C-terminal mCherry
Regarding B2, the Kd (in general, the free concentration of one partner at which half of the binding sites on the other are occupied at equilibrium, for simple one-to-one binding) in test [2] is about 100 nM.

B3: SYNC2CO-C43S (thermostable consensus SYNC2 mutant with additional mutation C43S), purified in detergent (ligand)
chain: AYRHPDFPLLEKAQQLLQSTGSPYSTNSWLCTSSSTETPGTAYPASPREWTSIEAELHISYRWDPNLKGLMRPANSLLSTVKQDFPDIRQKPPIFGPIFTNINLMGIAPICVTAKRKNGTNVGTLPSTVCNVTFTVDPNQQTYQTYTHNQFRHQPRFPKPPNITFPQGTLLDKSTRFCQGRPSSCSTRNFWFRPADYNQCLQISNLSSTAEWVLLDQTRNSLFWENKTKGANQSQTPCVQVLAGMTIATSYLGISAVSEFFGTSLTPLFHFHISTCLKTQGAFYICGQSIHQCLPSNWTGTCTIGYVTPDIFIAPGNLSLPIPIYGNSPLPRVRRAIHFIPLLAGLGILAGTGTGIAGITKASLTYSQLSKEIANNIDTMAKALTTMQEQIDSLAAVVLQNRRGLDMLTAAQGGICLALDEKCCFWVNQSGKVQDNIRQLLNQASSLRERATQGWLNWEGTWKWFSWVLPFIGPLVSLLLLLLFGPCLLNLITQFVSSRLQAIKLQTNLSAGRHPRNIQESPF
modifications: N-glycans at N133, N146, N177, N220, N241, N247 and N312 (all seven predicted sites carry glycans in the structure)
notes: Trimeric full-length envelope protein; also called SYNC2 consensus C43S; SYNC2SU-CO (its surface subunit as resolved in the cryo-EM map)
For B3, the binding result in test [3] was “binds”.

The values above are taken from patent US20260062455A1 (INSTITUT PASTEUR, published 2026).
